# Measurements published in article PMC9452514, “Coiled-coil structure of meiosis protein TEX12 and conformational regulation by its C-terminal tip” (Communications Biology, 2022).
# B1: TEX12 core (amino-acids 49–123) wild-type (domain or fragment, human, UniProt Q9BXU0 49-123, looked up)
# chain: KDEALEKDLNDVSKEINLMLSTYAKLLSERAAVDASYIDEIDELFKEANAIENFLIQKREFLRQRFTVIANTLHR
# notes: TEX12, human, structural core, amino-acids 49-123; expressed from pMAT11 as a TEV-cleavable His-MBP fusion; also called TEX12 wild-type; WT; source: E. coli BL21 (DE3), purified (Ni-NTA, amylose, HiTrap Q HP, TEV cleavage, SEC); not shown: His, N-terminal, cleaved; MBP, N-terminal, cleaved
# B2: TEX12 core (amino-acids 49–123) F102A F109E V116A (FFV) (domain or fragment, human, UniProt Q9BXU0 49-123, looked up)
# chain: KDEALEKDLNDVSKEINLMLSTYAKLLSERAAVDASYIDEIDELFKEANAIENALIQKREELRQRFTAIANTLHR
# notes: TEX12, human, structural core, amino-acids 49-123, with mutations of solvent-exposed residues; both crystal forms (6HK9, 6R2F) show dimers; The introduction gives the FFV of the earlier work as F102A F109A V116A; also called TEX12 FFV; TEX12 (49–123) FFV; source: E. coli BL21 (DE3), purified (Ni-NTA, amylose, HiTrap Q HP, TEV cleavage, SEC); not shown: His, N-terminal, cleaved; MBP, N-terminal, …
# B3: TEX12 core (amino-acids 49–123) L110E F114E I117E L121E (LFIL) (domain or fragment, human, UniProt Q9BXU0 49-123, looked up)
# chain: KDEALEKDLNDVSKEINLMLSTYAKLLSERAAVDASYIDEIDELFKEANAIENFLIQKREFERQRETVEANTEHR
# notes: TEX12, human, structural core, amino-acids 49-123, with glutamate mutations of the Ctip heptad amino-acids; In solution tetramers in concentration-dependent equilibrium with dimers; also called TEX12 LFIL; source: E. coli BL21 (DE3), purified (Ni-NTA, amylose, HiTrap Q HP, TEV cleavage, SEC); not shown: His, N-terminal, cleaved; MBP, N-terminal, cleaved
# B4: TEX12 ΔCtip (amino-acids 49–113) (domain or fragment, human, UniProt Q9BXU0 49-113, looked up)
# chain: KDEALEKDLNDVSKEINLMLSTYAKLLSERAAVDASYIDEIDELFKEANAIENFLIQKREFLRQR
# notes: TEX12, human, core without the C-terminal tip (deletion of amino-acids 114-123), amino-acids 49-113; Tetramer in the crystal (6HK8); in solution tetramers in concentration-dependent equilibrium with dimers; also called TEX12 ΔCtip (49–113); source: E. coli BL21 (DE3), purified (Ni-NTA, amylose, HiTrap Q HP, TEV cleavage, SEC); not shown: His, N-terminal, cleaved; MBP, N-terminal, cleaved
# Experiments:
# [1] = target: the molecule itself; test: SEC-MALS; Superdex 200 Increase 10/300 GL, 20 mM Tris pH 8.0, 150 mM KCl, 2 mM DTT; wild-type and FFV at >10 mg/ml and at 1 mg/ml; species stable across 1-10 mg/ml
# [2] = target: the molecule itself; test: SEC-SAXS; Superdex 200 Increase 10/300 GL, 20 mM Tris pH 8.0, 150 mM KCl; samples at >5 mg/ml; beamline B21, Diamond Light Source
# [3] = target: the molecule itself; test: crystal structure; TEX12 FFV at 43 mg/ml, sitting drops, 200 mM calcium acetate, 40% MPD, 20 °C; C222_(1), 1.45 Å, two chains per asymmetric unit
# [4] = target: the molecule itself; test: SEC-MALS; Superdex 200 Increase 10/300 GL, 20 mM Tris pH 8.0, 150 mM KCl, 2 mM DTT; ΔCtip and LFIL loaded at 1 mg/ml after stepwise dilution
# [5] = target: the molecule itself; test: SEC-SAXS; Superdex 200 Increase 10/300 GL, 20 mM Tris pH 8.0, 150 mM KCl; ΔCtip and LFIL analysed at ~30 mg/ml to minimise dissociation
protein,measurement,setting,value
B1,stoichiometry N,[1],2
B2,stoichiometry N,[2],4
same,stoichiometry N,[3],2
B3,stoichiometry N,[4],2
same,stoichiometry N,[5],4
B4,stoichiometry N,[4],2
same,stoichiometry N,[5],4
